Test results as given in patent publication US20140127759A1 (TORAY INDUSTRIES, published 2014).
Changes are numbered by the printed parent chain. Names may count otherwise.

B1: R170A/R220A/Y227F/E449R mutant β-glucosidase (enzyme)
chain: AKFPKNFMFGYSWSGFQFEMGLPGSEVESDWWVWVHDKENIASGLVSGDLPENGPAYWHLYKQDHDIAEKLGMDCIRGGIEWARIFPKPTFDVKVDVEKDEEGNIISVDVPESTIKELEKIANMEALEHYRKIYSDWKERGKTFILNLYHWPLPLWIHDPIAVRKLGPDAAPAGWLDEKTVVEFVKFAAFVAYHLDDLVDMWSTMNEPNVVYNQGYINLASGFPPGFLSFEAAEKAKFNLIQAHIGAYDAIKEYSEKSVGVIYAFAWHDPLAEEYKDEVEEIRKKDYEFVTILHSKGKLDWIGVNYYSRLVYGAKDGHLVPLPGYGFMSERGGFAKSGRPASDFGWEMYPEGLENLLKYLNNAYELPMIITENGMADAADRYRPHYLVSHLKAVYNAMKEGADVRGYLHWSLTDNYEWAQGFRMRFGLVYVDFETKKRYLRPSALVFRRIATQKEIPEELAHLADLKFVTRK
B2: R170A/R220A/Y227F mutant β-glucosidase (enzyme)
chain: B1 chain with R449E
notes: start methionine not included; Homodimer in crystal and by gel filtration; also called mutant (R170A/R220A/Y227F)
B3: R170A/R220A/Y227F/R448E mutant β-glucosidase (enzyme)
chain: B1 chain with R448E, R449E
notes: start methionine not included; Estimated to be monomeric
B4: R170A/R220A/Y227F/R448G mutant β-glucosidase (enzyme)
chain: B1 chain with R448G, R449E
notes: as for B3
B5: R170A/R220A/Y227F/E459G mutant β-glucosidase (enzyme)
chain: B1 chain with R449E, E459G
notes: as for B3
B6: R170A mutant β-glucosidase (enzyme)
chain: B1 chain with A220R, F227Y, R449E
notes: start methionine not included in the entry
B7: R170A/R220A mutant β-glucosidase (enzyme)
chain: B1 chain with F227Y, R449E
notes: start methionine not included; also called A170A/R220A mutant [sic]
B8: parent β-glucosidase (Pyrococcus furiosus) (enzyme)
chain: B1 chain with A170R, A220R, F227Y, R449E
notes: Recombinant, expressed in E. coli; Homotetramer in crystal and in solution; also called wild-type; parent glucosidase

Assays:
[1] = molecular target: R170A/R220A/Y227F/E449R mutant β-glucosidase (Pyrococcus furiosus); test: gel filtration (Superdex 200), oligomeric state
[2] = molecular target: the molecule itself; test: gel filtration (Superdex 200), oligomeric state
Procedure: (§1) The molecular weights of the parent glucosidase and the mutants were determined by gel filtration using HiLood 26/60 Suuperdex 200 as the column, a 50 mM tris-hydrochloride (pH 8) and 150 mM sodium chloride as the buffer. The enzymes prepared in Example 2, Reference Example 1, and Example 9 were each added to the column and eluted with the buffer at a flow rate of 2 mL/min. The enzyme was detected by measuring absorbance at 280 nm. Ovoalbumin (44 kDa), conalbumin (75 kDa), aldolase (158 kDa), and ferritin (440 kDa) were used as molecular weight markers, and a calibration curve was drawn based on the elution time of each enzyme component. The molecular weights measured by gel filtration (observed molecular weights: kDa) and molecular weights estimated from the amino acid primary structures (estimated molecular weights: kDa) are summarized in Table 8.

[3] = molecular target: the molecule itself; test: gel filtration (Superdex 200), self-association
Procedure: as §1

[4] = molecular target: the molecule itself; test: blue-native PAGE, self-association
Procedure: Whether the parent β-glucosidase and our β-glucosidases, R170A mutant, R170A/R220A mutant, and R170A/R220A/Y227F mutant, form stable tetramers or not was investigated by blue-native PAGE.
In the blue-native PAGE, 3-12% Native-PAGE Bis-Tris Gel (Invitrogen Corporation) was used. Electrophoresis samples were prepared by dissolving 1 μg of each of the parent β-glucosidase, R170A mutant, R170A/R220A mutant, and R170A/R220A/Y227F mutant in a sample buffer (50 mM imidazole (pH 7.0), 50 mM NaCl, 5 mM 6-aminohexanoic acid, 0.5% Coomassie G250, and 0.5% DDM). NativeMark protein standard (Invitrogen Corporation) was used as molecular weight markers. In the electrophoresis, 50 mM Tricine, 7.5 mM imidazole (pH 7.0), and Coomassie G250 were added to […], whereas 25 mM imidazole (pH 7.0) was added to the cathode side. The electrophoresis was performed at a constant voltage of 150 V for 100 minutes. After fixation of bands, G-250 was decolorized.

Binder	Observed molecular weight (kDa) [2]	binding result [3]	other results
B1	–	–	Observed molecular weight (kDa) [1]: 92 kDa
B2	129 kDa	–	–
B3	70 kDa	no binding	–
B4	63 kDa	no binding	–
B5	50 kDa	no binding	–
B6	–	–	binding result [4]: binds
B7	–	–	binding result [4]: binds
B8	237 kDa	–	–
